Experimental data reported in patent US20170252458A1 (EISAI R AND D MANAGEMENT, published 2017).
Values joined by “and” are separate entries in the source; they are usually repeats but may differ in a detail not shown here. Equal entries are not always repeated.

Columns and labels:
[1] = target: T1, Recombinant human mesothelin (human, UniProt Q13421 296-580, limits assumed); assay: Biacore T100, antibody captured on anti-human IgG, antigen injected, 1:1 Langmuir
T1 construct: also called MSLN
Procedure: Antibody concentrations were adjusted to 2 μg/mL in HBS-P+ buffer (GE Healthcare). Unmodified antibodies, or ADCs, were injected over an anti-human IgG sensor on a BIAcore T100 (GE Healthcare) for 1 min at a flow rate of 10 μL/min. To record the antigen association to the captured antibody, a series of increasing concentrations of antigen was injected for 300 sec at a flow rate of 30 μL/min. […] The dissociation of antigen was monitored for 30 min at the same flow rate. The sensor surface was regenerated by injecting 3 M MgCl₂ for 2×30 sec at a flow rate of 30 μL/min. Sensograms were analyzed with Biacore T100 Evaluation Software using a 1:1 Langmuir binding model.
Binding affinities of the parental antibodies were determined by Biacore analysis, as described above in section 1.6.1. Aggregation levels for all anti-human mesothelin ADCs were determined by SEC-HPLC and the DAR was analyzed using HIC-HPLC. In vitro potency was evaluated using a Crystal Violet cell-based cytotoxicity assay in A3 (A431 stabily transfected with human mesothelin (MSLN), MSLN^hi), OVCAR3 (human ovarian, MSLN^hi), HEC-251 (human endometroid, MSLN^med), H226 (human lung squamous cell mesothelioma, MSLN^lo, and A431 parental (MSLN^neg) cells. The results of the DAR, aggregation, and cytotoxicity analyses are shown in Table 50.

[2] = target: T2, Human folate receptor alpha on tumor cells (human, UniProt P15328 25-234); assay: cell-based or functional assay
T2 sequence (P15328 25-234 limits assumed): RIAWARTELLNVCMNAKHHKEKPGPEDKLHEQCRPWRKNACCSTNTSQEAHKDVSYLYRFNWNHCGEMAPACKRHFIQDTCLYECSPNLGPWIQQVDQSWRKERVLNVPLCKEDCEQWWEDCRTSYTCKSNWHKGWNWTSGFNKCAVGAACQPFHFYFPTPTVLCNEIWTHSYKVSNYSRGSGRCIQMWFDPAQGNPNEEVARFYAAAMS

[3] = target: T2, Human folate receptor alpha on tumor …; assay: cell-based or functional assay; remark: listed apart in the source
[4] = target: T3, Recombinant human folate receptor alpha (human, UniProt P15328 25-234); assay: ELISA, recombinant human FRA coated
T3 construct: also called FRA; FR
T3 sequence (P15328 25-234 limits assumed): as above
Procedure: Coating solution was discarded and the plates were washed three times using 1× PBS with 0.05% Tween-20 (PBST) buffer. Plates were blocked in 300 μL blocking buffer (1% BSA in PBST) at room temperature for 2 hours on an orbital shaker. […] Blocking buffer was discarded and 100 μL/well of diluted antibody was added to the plates. Plates were incubated at room temperature for 2 hours on an orbital shaker. Antibody solution was discarded and plates were washed three times using PBST. 100 μL/well of goat-anti-human IgG (H+L)-HRP (1:10,000 dilution in blocking buffer) solution was added to the plates, and plates were incubated at room temperature for 1 hour on an orbital shaker. Secondary antibody solution was discarded and plates were washed three times using PBST. 100 μL/well of QuantaBlu fluorogenic peroxidase substrate working solution (Thermo, Cat No. 15169) was added to the plates, and plates were incubated at room temperature for 30 min. Fluorescence was read at excitation 325 nm/emission 420 nm using a SpectraMax M5 (Molecular Devices). Data was analyzed using SoftMaxPro 5.4.2 software with 4-parameter fitting.

T1 sequence (Q13421 other isoform, or with tags, fused parts or gaps limits assumed): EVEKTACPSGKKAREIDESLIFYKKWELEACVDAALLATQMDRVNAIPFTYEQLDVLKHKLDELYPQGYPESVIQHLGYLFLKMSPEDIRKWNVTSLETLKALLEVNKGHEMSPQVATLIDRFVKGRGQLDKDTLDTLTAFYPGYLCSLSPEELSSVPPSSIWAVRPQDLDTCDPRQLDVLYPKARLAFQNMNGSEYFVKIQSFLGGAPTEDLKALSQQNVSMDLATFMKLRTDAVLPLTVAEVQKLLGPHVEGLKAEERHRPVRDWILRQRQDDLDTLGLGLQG

Binder | Kd [1] [nM] | EC50 [4] | other results
346C6-xi (antibody, human IgG1, kappa, V domains shown, Rabbit-human chimeric anti-human mesothelin with unpaired cysteine at LCcys80; parental mAb in Biacore) VH: QSVEESGGRLVKPDESLTLTCTASGFSLSSYAMIWVRQAPGEGLEWIGTISTGGITYYASWAKGRFTISKTSTTVDLKITSPTTEDTATYFCARGGYAASSAYYLPYYFDLWGQGTLVTVSS VL: AAVLTQTPSPVSAAVGGTVTISCQSSQSVYNNNNLAWFQQKPGQPPKLLIYLASTLASGVPSRFSGSGSGTQFTLTISGVQCDDAATYYCLGGCDDDADTFAFGGGTEVVVKR | 1.4 | – | –
201C15-zu (antibody, human IgG1, kappa, V domains shown, Humanized anti-human mesothelin with unpaired cysteine at LCcys80; parental mAb in Biacore) VH: QVQLVESGGGLVQPGGSLRLSCSASGIDLSSYAMGWVRQAPGKGLEYIGTINIGGRVYYASWAKGRFTISRDNSKNTLYLQMNSLRAEDTAVYYCARYYNGGSYDIWGQGTLVTVSS VL: DIQMTQSPSTLSASVGDRVTITCQASESIYRVLAWYQQKPGKAPKLLIYDTSTLASGVPSRFSGSGSGTEFTLTISSLQCDDAATYYCQGGYYADSYGIAFGGGTKVEIKR | 4.2 | – | –
111B10-zu (antibody, human IgG1, kappa, V domains shown, Humanized anti-human mesothelin with unpaired cysteine at LCcys80; parental mAb in Biacore; also called 111810 zu) VH: EVQLVESGGGLVQPGGSLRLSCAASGFSLNNYAMSWVRQAPGKGLEWIGSISTGGLAFYANWAKGRFTISRDNSKNTLYLQMNSLRAEDTAVYYCARNGGGSYIFYYFDLWGQGTLVTVSS VL: DIQMTQSPSSLSASVGDRVTITCQASQSISSYLSWYQQKPGKAPKLLIYSASTLASGVPSRFSGSGSGTDFTLTISSLQCEDAATYYCQSYYDIGTSTFGGGTKVEIKR | 8.5 | – | –
346C6-zu (antibody, human IgG1, kappa, V domains shown, Humanized anti-human mesothelin with unpaired cysteine at LCcys80; parental mAb in Biacore) VH: EVQLVESGGGLVQPGGSLRLSCAASGFSLSSYAMIWVRQAPGKGLEWIGTISTGGITYYASWAKGRFTISRDNSKNTLYLQMNSLRAEDTAVYYCARGGYAASSAYYLPYYFDLWGQGTLVTVSS VL: DIQMTQSPSSLSASVGDRVTITCQSSQSVYNNNNLAWYQQKPGKVPKLLIYLASTLASGVPSRFSGSGSGTDFTLTISSLQCEDAATYYCLGGCDDDADTFAFGGGTKVEIKR | 6.9 | – | –
111B10-xi (antibody, human IgG1, kappa, V domains shown, Rabbit-human chimeric anti-human mesothelin with unpaired cysteine at LCcys80; parental mAb in Biacore; also called 111810 xi) VH: QSVEESGGRLVTPGTPLTLTCTVSGFSLNNYAMSWVRQAPGKGLEWIGSISTGGLAFYANWAKGRFTISRTSTTVDLKMTSLTTEDTATYFCGRNGGGSYIFYYFDLWGQGTLVTVSS VL: AFELTQTPSSVEAAVGGTITIKCQASQSISSYLSWYQQKPGQPPKLLIYSASTLASGVSSRFKGSGSGTEYTLTISDLECADAATYFCQSYYDIGTSTFGGGTEVVVKR | 6.3 | – | –
33011-zu (antibody, human IgG1, kappa, V domains shown, Humanized anti-human mesothelin with unpaired cysteine at LCcys80; parental (unconjugated) mAb in Biacore; also called 33O11 zu) VH: EVQLVESGGGLVQPGGSLRLSCAASGISLSSDAISWVRQAPGKGLEYIGIINGGGNTYYASWAKGRFTISRHNSKNTLYLQMNSLRAEDTAVYYCARGIQHGGGNSDYYYYGMDLWGQGTLVTVSS VL: DIQMTQSPSSLSASVGDRVTITCQASQSISSVLSWYQQKPGKAPKLLIYLASTLASGVPSRFSGSGSGTDFTLTISSLQCEDIATYYCQTNYGTSSSNYGFAFGGGTKVEIKR | 3.4 | – | –
201C15-xi (antibody, human IgG1, kappa, V domains shown, Rabbit-human chimeric anti-human mesothelin with unpaired cysteine at LCcys80; parental mAb in Biacore) VH: QSVKESGGRLVTPGTPLTLTCTVSGIDLSSYAMGWFRQAPGKGLEYIGTINIGGRVYYASWAKGRFTISRTSTTVDLKAPSLTAEDTATYFCARYYNGGSYDIWGPGTLVTVSL VL: DVVMTQTPASASEPVGGTVTIKCQASESIYRVLAWYQQKPGQPPKLLIYDTSTLASGAPSRFKGSGYGTEFTLTISGVQCEDAATYYCQGGYYADSYGIAFGGGTEVVVKR | 1.1 | – | –
MORAb-003-VCP-eribulin (MORAb-202) (antibody, human IgG1, kappa, V domains shown, Mal-PEG2-Val-Cit-pAB-eribulin on interchain cysteines, sites not given) VH: EVQLVESGGGVVQPGRSLRLSCSASGFTFSGYGLSWVRQAPGKGLEWVAMISSGGSYTYYADSVKGRFAISRDNAKNTLFLQMDSLRPEDTGVYFCARHGDDPAWFAYWGQGTPVTVSS VL: DIQLTQSPSSLSASVGDRVTITCSVSSSISSNNLHWYQQKPGKAPKPWIYGTSNLASGVPSRFSGSGSGTDYTFTISSLQPEDIATYYCQQWSSYPYMYTFGQGTKVEIKR | – | – | Cytotoxicity EC50 (nM), A431-A3 (FR+/-), Crystal Violet assay [2]: 23 nM; Cytotoxicity EC50 (nM), IGROV I (FR+++), Crystal Violet assay [2]: 0.01 nM; Cytotoxicity EC50 (nM), NCI-H2110 (FR++), Crystal Violet assay [2]: 0.74 nM; Cytotoxicity EC50 (nM), OVCAR3 (FR++), Crystal Violet assay [2]: 0.16 nM; IC50 (read off the curve), % survival of IGROV1 cells, conjugate alone [3]: ~0.03 nM; IC50 (read off the curve), % survival of IGROV1 cells, in the presence of 2 µM unconjugated MORAb-003 as competitor [3]: ~3 nM
MORAb003-DBCO-PEG2 eribulin (antibody, human IgG1, kappa, V domains shown, NHS-PEG4-DBCO on lysines, then azido-PEG2-eribulin by SPAAC; sites not given, Antibody-drug conjugate) VH: EVQLVESGGGVVQPGRSLRLSCSASGFTFSGYGLSWVRQAPGKGLEWVAMISSGGSYTYYADSVKGRFAISRDNAKNTLFLQMDSLRPEDTGVYFCARHGDDPAWFAYWGQGTPVTVSS VL: DIQLTQSPSSLSASVGDRVTITCSVSSSISSNNLHWYQQKPGKAPKPWIYGTSNLASGVPSRFSGSGSGTDYTFTISSLQPEDIATYYCQQWSSYPYMYTFGQGTKVEIKR | – | 0.0191 µg/mL and 0.13 nM | –
MORAb003-DBCO-PEG4 eribulin (antibody, human IgG1, kappa, V domains shown, NHS-PEG4-DBCO on lysines, then azido-PEG4-eribulin by SPAAC; sites not given, Antibody-drug conjugate) VH: EVQLVESGGGVVQPGRSLRLSCSASGFTFSGYGLSWVRQAPGKGLEWVAMISSGGSYTYYADSVKGRFAISRDNAKNTLFLQMDSLRPEDTGVYFCARHGDDPAWFAYWGQGTPVTVSS VL: DIQLTQSPSSLSASVGDRVTITCSVSSSISSNNLHWYQQKPGKAPKPWIYGTSNLASGVPSRFSGSGSGTDYTFTISSLQPEDIATYYCQQWSSYPYMYTFGQGTKVEIKR | – | 0.0133 µg/mL and 0.09 nM | –
MORAb003-DBCO-ER1138856 (antibody, human IgG1, kappa, V domains shown, NHS-PEG4-DBCO on lysines, then azide-PEG3-sulfonamide-pAB-eribulin by SPAAC; sites not given, Antibody-drug conjugate) VH: EVQLVESGGGVVQPGRSLRLSCSASGFTFSGYGLSWVRQAPGKGLEWVAMISSGGSYTYYADSVKGRFAISRDNAKNTLFLQMDSLRPEDTGVYFCARHGDDPAWFAYWGQGTPVTVSS VL: DIQLTQSPSSLSASVGDRVTITCSVSSSISSNNLHWYQQKPGKAPKPWIYGTSNLASGVPSRFSGSGSGTDYTFTISSLQPEDIATYYCQQWSSYPYMYTFGQGTKVEIKR | – | 0.015 µg/mL and 0.1 nM | –
MORAb003-DBCO-PEG4 VCP eribulin (antibody, human IgG1, kappa, V domains shown, NHS-PEG4-DBCO on lysines, then azido-PEG4-Val-Cit-pAB-eribulin by SPAAC; sites not given, Antibody-drug conjugate) VH: EVQLVESGGGVVQPGRSLRLSCSASGFTFSGYGLSWVRQAPGKGLEWVAMISSGGSYTYYADSVKGRFAISRDNAKNTLFLQMDSLRPEDTGVYFCARHGDDPAWFAYWGQGTPVTVSS VL: DIQLTQSPSSLSASVGDRVTITCSVSSSISSNNLHWYQQKPGKAPKPWIYGTSNLASGVPSRFSGSGSGTDYTFTISSLQPEDIATYYCQQWSSYPYMYTFGQGTKVEIKR | – | 0.016 µg/mL and 0.11 nM | –
